# Where “and” joins values, the source holds several entries; their conditions need not be identical. Identical values can stand only once.
# Molecular target: the molecule itself
# Test: SEC
protein,measurement,value
"Chlamydomonas reinhardtii alpha-amylase 2 (AMA2), recombinant full-length enzyme (enzyme, UniProt A0A2K3DGK5 1-706, looked up) MDRSLLSRTSPRMQLGRPQQLPPPTVPLAQVPRLQRRCVVGSRVCQPVVAVRPGRASAGRGGRLVVSSVDMSNSPLSSMDAGEGLDIMFDNNSDAECTVVTVEGKDKAHLLMSLTGGFSSAGLTVISASITSDDGRVLDVFRVQTADGKKVPEEQFPSVREHILSVTATSSRSSMPAIYGIVAAAEVERLKPLRSQSTQNDVDALELAAAEMTQAVAELVATERDIIRMRASNADARTLQTKEANRTEAAAGLERKMAAMQAVLAARRNLATEPEKPKSPTEKLLETLKPPTPMRAAAGAGSGSGSEILLQAFNWESHRQKLYKQLMGRVKDISDAGFTGVWMPPPSDSVSPQGYLPRDLYSLDSAYGSEAELRELIAAFHQNNIKVIADIVVNHRCANSQGSDGKWNKFGGRLAWDASAICSNNPSFGGRGNPKQGDDYAAAPNIDHSQERIRNDIVQWMKYLRNSIGFDGWRFDFVRGYLGSYCKQYIDETVPAMAFGEYWDSCEYTDGVLNYNQDAHRQRTVNWCDSTGGTSAAFDFTTKGILQEAVGRREYWRLVDSQGRPPGVMGMWPSRAITFIDNHDTGSTLNHWPFPSRNLPEGYAYILTHPGTPCVFYDHFYQEENNLRKIILDLLKVRRRNGLNARSKVVMKKSAADVYAAMIDDKVAVKLGPGDWSPNQSGIKVNGKELKVAASGFQFAVWEGQH",stoichiometry N,2 and 4

# Source: paper doi:10.1101/2024.03.07.583849 (bioRxiv, 2024)
